The series has as its target T1, HsRAD51(H294V) H294V (Homo sapiens) (UniProt Q06609).
T1 sequence: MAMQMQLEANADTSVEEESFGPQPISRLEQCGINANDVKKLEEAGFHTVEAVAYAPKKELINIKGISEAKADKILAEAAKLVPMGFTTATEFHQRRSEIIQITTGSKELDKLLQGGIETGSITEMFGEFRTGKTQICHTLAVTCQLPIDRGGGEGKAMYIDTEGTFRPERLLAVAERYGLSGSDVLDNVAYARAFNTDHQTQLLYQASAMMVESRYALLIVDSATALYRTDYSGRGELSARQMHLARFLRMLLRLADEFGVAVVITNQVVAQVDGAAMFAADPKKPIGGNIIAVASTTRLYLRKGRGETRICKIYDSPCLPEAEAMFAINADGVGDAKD
Description: SPR. As to conditions: SPR (Biacore 3000): 20 mM HEPES pH 7.5, 10% glycerol, 1 mM DTT, 1 mM MgCl2, 0.005% P-20, 2.5 mM indicated nucleotide, 150 mM KCl when indicated (text: salt …). For orientation: In SPR one partner is held on a chip, and binding of the other changes the refractive index at the surface.

For the sequence “TCGAGAGGGTAAACCACAATTATTGATATAAAATAGTTTTGGGTAGGCGA (double strand) [50 bp dsDNA]”, the Kd (as a rule, the equilibrium constant for the complex coming apart) amounted to 472 nM.

These data come from PMC3155514.
